Patent US20070025992A1 (MOCHIDA PHARMACEUTICAL, published 2007)

T1: GPVI-Fc (fusion protein of the extracellular domain of human GPVI and the Fc fragment of human IgG1) (human, UniProt Q9HCN6 21-267)
T1 construct: extracellular domain; also called human soluble GPVI-Fc; GPVI-hFc; not shown: human IgG1 Fc domain from plasmid pM1304 (printed as '506 amino acids'), joined in frame through a BamHI site
T1 sequence (looked up): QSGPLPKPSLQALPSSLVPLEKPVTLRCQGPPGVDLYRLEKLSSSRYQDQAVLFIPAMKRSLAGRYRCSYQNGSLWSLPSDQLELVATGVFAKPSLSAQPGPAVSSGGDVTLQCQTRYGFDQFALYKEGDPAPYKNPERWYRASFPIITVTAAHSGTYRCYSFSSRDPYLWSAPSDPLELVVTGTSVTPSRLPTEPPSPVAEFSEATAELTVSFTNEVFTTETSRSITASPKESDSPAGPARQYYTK


Assays:
[1] = target: T1, GPVI-Fc (fusion protein of the …); assay: ELISA on immobilized GPVI-Fc (0.25 µg/well), 20 ng purified antibody, peroxidase-labeled anti-human kappa or lambda antibody, absorbance at 450 nm
Method: GPVI binding activity of the purified antibody that was obtained in EXAMPLE 2 was assayed by the ELISA method that was described in EXAMPLE 2. As substitute for the culture supernatant of hybridoma in EXAMPLE 2, 20 ng of the purified anti-GPVI monoclonal human antibody prepared in EXAMPLE 2 was added, and as a control, purified human IgM (Cappel) was used.
Thus it was confirmed that the prepared antibody specifically recognizes GPVI.

[2] = target: T1, GPVI-Fc (fusion protein of the …); assay: SPR (BIACORE3000), GPVI-Fc immobilized on CM5 chip

| Binder | binding result [1] | Kd [2] |
| --- | --- | --- |
| #2-37 (antibody, V domains shown, Human monoclonal antibody from a hybridoma; also called clone #2-37; #2-37 antibody) VH: EVQLVESGGGLVKPGGSLRLSCAASGFTFSDYYMSWIRQAPGKGLEWVSYITSSSSYTNYADSVKGRFTISRDNAKNSLYLQMNSLRAEDTAVYYCARDRAVRGVIIIRPPDYWGQGTLVTVSS VL: QSALTQPASVSGSPGQSITISCTGTSSDVGGYNYVSWYQQHPGKAPKLMIYDVSNRPSGVSNRFSGSKSGNTASLTISGLQAEDEADYYCSSYTSSSTLVFGGGTKLTVL | binds | – |
| #2-4 antibody (anti-GPVI monoclonal human antibody produced by hybridoma clone #2-4) (antibody, V domains shown) VH: not shown VL: QSVLTQPPSVSAAPGQKVTISCSGSSSNIGNNYVSWYQQLPGTAPKLLIYDNNKRPSGIPDRFSGSKSGTSATLGITGLQTGDEADYYCGTWDSSLSAGVFGGGTKLTVL | – | 41.3 nM |
